In the DeepSol protein solubility set:

Test: soluble on expression in E. coli; label from the status in PepcDB or PDB records

| Sequence | soluble on expression in E. coli |
| --- | --- |
| MGSDKIHHHHHHMVRLNEIKMQDGKIFLITGANSGLGYETSKFLLERGATVIMCCRDLLKGEKAKKELLKFKFSGKIELVELDLSDLINVKKFAESIKNTFDHLDVLINNAGIMAPPKTLSKQGFEIQFAVNHLAHMFLTLELLPMLEEKNNSRVVTVTSGVQYFGKIQWEDLQGNLKYDRWASYAQSKLANVMFGLELDSKLKETNSKTSSLLAHPGFARTNLQPKSVEANQSWQEELAYKLMDPMFQSAKMGALPQITAATLTSASGGEQYGPRFNFRGFPKICRNAPKALNQTSRKKLWDISEKLIKDFDTLSKQSK | not soluble |
| MGSDKIHHHHHHVIRRKKEADMQLPDAWDWESGERTIMASTAPQEGHLWQEELQASPDGERFAAVTALDETTFSLRINDQTQEATYDKIWLPRFSPDGRLTALVQEDGEWTMLVEEEAWPGHYGYLWSTMFGPSGDIAAPAQQDGEYGMVLNGTPWETLYENANNYCISPAGGKTAAVVQTRSMGQADVATFQEGIYSVAVNGEAWPVNFVNCWTPVFSADGRRVAVQVRRNLHDYTIAVDGTPWTINYQCVWEPCFHPSSGGVAAPVRQNGMWGVALDGQMLWKARNAQCWNLRYSPDGSHLWAVVAPEYGMFTVSLDDTPWTFRAPVVTDMVLSPSGDRAAALASDNNTLWQVVVDGKPWRGTYDMAWQPVFSPDGTRVAARVERNGKYVVLLDGAPAAEAFDTAFDPVFSPDGRKLLLRGVRNGKAVRIVKQLQ | not soluble |
| MYILLCCAAGMSTSMVVRKMQEEAKKQGKDYKIKAVDSELVKLEIKNADVVLIGPQVKYLFPAVQFLAKSYDIPVAIIEQRDYGMCDGLKVLKQAEQLVLA | not soluble |
| MATQKEKPSSNSFKWFSTKTLKLNLSFQNRRRSPKSNSSSTLNSPRSNSDDNNNIKSHQASKEELRQVFSHFDSDGDGKISAFELRHYFGSVGEYISHEAAQEAINEVDTDADGSLGFEDFVGLMTRRDLYGDGEVDGDGELKTAFEMFEVEKGSGCITPKGLQKMLVKLGESRTYGECEAMIKFYDIDGNGILDFHEFRQMMTV | soluble |
| MGSDKIHHHHHHMYGIVIVEDEELERQALRTILTENIDGIRILGEARTGTEAVALIDSCEIDLMLVDINIPNLNGLEVIRHLRDRHADTKVIITTAYDYFETTRTAIQLKVDEYLLKPIRTQALVTTIQSCIGQLGAGRQCRELVGRIADLVEQDGYQEGVTLVRRHIEWICTQRGHVPRDLILDFAGALVALARDKGLRLPDALTQQIGQLRTMPLDAQTGYQALGTFLGVVDLLFDVTGERFGYSSNTVKKVLNYIERNLTKRITLEDAAEYANISPSYLSRMFKKTLNVNFISYLTTRRIELAKETLIGTERPITAISQELSYSDVNYFCKSFKKEVGVSPTEYRRQSRLAQGAPPPREAALATG | not soluble |
| MSLKKSPLTIVHLTDIHYDPEYVVGVNADCKAEACCRTLPDLAPATPETAAGYWSDYRDCDTPWHGVVDVMEHIRRQHPKIDAIYFTGDIVHHFTWNTSIETNEGAMRQVFDLMKRVFPGVPLYPVLGNHESHPANLYAPHDVEASYRMDYLYDFIADQWADWLPIKDIRPTLTEGGYYTVRTPYGVRIIGLNNNPCFVHNFWLFYSLDYFMPQLQWLHDTLLQAEWDNERVHILAHVPSYDDSCFIGWTREYRKIVERFAHIIAGQFNGHSHVDEFNLYYRRDDPSRAVSVAWNGGSTTTFTKLNPNYKVFQFDPVTFEPLEQETWMYNLTDANLTPDQRPSWYRLYSFKSYYQLPDLSVDSLHRLVQRFAQSEQQLHRYWQAKQKYSDPLLQEGCTSTCLRNALCAIVRTEHDDERACELLYERAAQSEGHHHHHH | not soluble |
| MNFAQVKDYLVDLQNRIVTGLEQVDGQSFRRDTWDRPEGGGGTSCVIEEGNVLERGGVNFSHVFGKGLPASATAARPELAGRAFEAAGVSLVLHPRNPYAPTVHMNVRFFAATKEGAEPVWWFGGGMDLTPYYGFEEDAVHFHQACKDALQPSGEEYYPRFKKWCDEYFYLKHRKEPRGIGGVFFDDLNQPDFATCFNLTRSVGDHFLAAYVPILQKRRDLPYGERERDFQAYRRGRYVEFNLVWDRGTLFGLQSGGRTESILMSLPPVVKWRYDWSPAAGSPEAKLYTDFLTGRDWLPLGLEHHHHHH | soluble |
| MPRVSASPRTPPPPVMDLRMSEDSAFPIDFSALTRAQLENITRVCHGSAGSVFQQAGLFTSAGLPIVNNVRLKLAQRDADAFTTFEELINLFEDFYGRLALIEDTQNNLLLSALSAGDEPGETLQ | not soluble |
| MKDVTPARADYPWDGERDVIVIGSGCAGLSAALLAAKKSLDVVLCEKSSQVGGTTASAGGVMWIPNSREARAAGVDDSSEQVRVYLRALMGAYYRADLVDPYLKSAPLAAQAIQEDTQVRLKLMPAMSDYHASLPGGKAGGRSLEPERFDGRRLGADFELVRAPIKRLMLLGGLYIDKRRIDEFLNPFGSFRNFIGVIRTLARYAIDRTRFSRGTDIGAGNAFVASALLSLRERGVPIWLNSPMVSLVRNPQGGVAGVAICRDGKLQRIRARKGVILAAGGFPRNAALLEELAGGFPHDQSVGYEGNVGDTLQAARQAGAAIDADLASPCWWTPTSRNKEADGSMSTVLYGYLDRSRPGMIAVNAAGKRFVNDSDSYHDIVYAMFKDGVTPDSRFYLICDRRFVWKRGLGNLIKPYCLSLGRYVRSGYISTGRSIRELAAAIGIDPDALEVTVTRHNGFCETGVDLDFGKGGNPYNRMFGDPRVKPNPNLLAIRHAPFFALRIYPGTLGTILGLKATADAQVVGQDGEAIPGLYACGNDMSSVFRGFYPGAGATLGPGLVFAYRAIEHLARSSGGSAAQSALEHHHHHH | not soluble |
| MSNEEIKNKDEQLQQDAVETEAEVVGTDADIDWNQAADEIDEKEAKIAQLEAALLVSEERVKEQQDSVLRARAEVENMRRRSEQEVDKARKFALSRFAEELLPVIDNLERAIQAADGEVEAIKPLLEGVELTHKTFVDTIAKFGLKEINPHGEVFNPEFHQAMSIQESAEHEPNTVMFVMQKGYELNGRVLRPAMVMVSK | not soluble |
| MEDKLITLAILTYAKAQILKNVLENEGIEAYIHNVNLIQPVISSGVRLRIKESDLPHALQIIESSAWLSEDIIKGKESSSERNKEKRKVLIPIDFSNYSLKACQFGFSFANAINSEVVLLHAYFSPIYVPTIPYGTDNFNFQIEREESVKSMIETVHNELNKLSDTIKKKVESGEFPNIKYTCILRDGIPEEEILRYAKEYNPQIIIMGTRGRSQKDIDLIGSVTAEVIERSKSFVYAIPEHTPLKTFNDIKKVAFVTNFDQRDLIAFDSLINAFKSFHFAVSFIHLSTDNDAWNEIKLAGIKDYFQKQYSKLELYYNVVKEDNILNNLDNYVKEENIDVICITNYKRNIFARLFNPSIARKMIFHANTPILVIK | not soluble |
| MGSDKIHHHHHHMKDSFRTIYNGASVPLAEIPPVDINEFLQGILDSVDRGWRIVSYFGIPAPSSTALVCILANKAEGRLAAARTETSDSHVPSLSSLITQVQLFEREIAEQCGLIFDGHPWFKPVRFHHSFVPGRDAWDRTADEPLRVGVMDYYQVAGDEVHEVAVGPVHAGIIEPGHFRFQCHGEEVFHLEISLGYQHRGIEAGLAGGPHPRTLQVMETAAGDTTIGHGQAYCMIMESLGGIKAPPRAEVLRGIALELERLANHTGDLGAIAGDVGYLPTSSFCGRIRGDFLNMTAVLCGSRFGRGLLVPGGTIFDLTPGLRDDLLKRLAEARRDLTNAIELLWSSPSVMGRLEGTGTLTREQALELGLVGPAARACGIKRDVRLDYPFGIYRMTHLPVATVFHGDVCARTMIRWLEAQKSMDFIEEQLRQLPGGGHRVATAPCAGGRLAVALTEGWRGEICHVAVTDDAGRFSRYKIVDPSFHNWQGLALALRGQQISDFPLCNKSFNLSYCGFDL | not soluble |
| MAGDPMKAREVEFEGHLIDSMIFTKALDIILDLDGEFEILEFRVGKKKDDPSYARMIVFGRDDAHLEQILKELHKIGARIPDIEEVELAEAPADKVLPDGFYVTTNHPTFVRYGGEWLPVEDISMDRVIVIRDGRAYCIPIDEVVRGDRVVVGEKGVRVVPPERPRKSTVFEFMGGRVSSERPTERMIEAIAREIYELKLKGGKIAVVAGPAVDHTSARNALAALIRDGYVDLLLSGNALAVHDIEISIFGTSLGMDICKGRPVPGGNRHHLYTISKVIAAGGIKKAIEKGIIKDGIMYECVKNNVPFILAGSIRDDGPLPEVITDVMVAKKKMKEALRGINMVIMLATMLHSIAVGNLLPSYVKTICVDMNPSTVTKLMDRGTHQAIGVVTDVGLFLPLLYLKIKEIEAKELEHHHHHH | soluble |
